According to publication PMC4657330, “Rac1 augments Wnt signaling by stimulating β-catenin–lymphoid enhancer factor-1 complex assembly independent of β-catenin nuclear import” (Journal of Cell Science, 2015):
Numbering of substitutions follows the chain as printed. Names may count otherwise.

B1: myc-tagged β-catenin S191A (natural protein, UniProt P35222 1-781, looked up)
chain: MATQADLMELDMAMEPDRKAAVSHWQQQSYLDSGIHSGATTTAPSLSGKGNPEEEDVDTSQVLYEWEQGFSQSFTQEQVADIDGQYAMTRAQRVRAAMFPETLDEGMQIPSTQFDAAHPTNVQRLAEPSQMLKHAVVNLINYQDDAELATRAIPELTKLLNDEDQVVVNKAAVMVHQLSKKEASRHAIMRAPQMVSAIVRTMQNTNDVETARCTAGTLHNLSHHREGLLAIFKSGGIPALVKMLGSPVDSVLFYAITTLHNLLLHQEGAKMAVRLAGGLQKMVALLNKTNVKFLAITTDCLQILAYGNQESKLIILASGGPQALVNIMRTYTYEKLLWTTSRVLKVLSVCSSNKPAIVEAGGMQALGLHLTDPSQRLVQNCLWTLRNLSDAATKQEGMEGLLGTLVQLLGSDDINVVTCAAGILSNLTCNNYKNKMMVCQVGGIEALVRTVLRAGDREDITEPAICALRHLTSRHQEAEMAQNAVRLHYGLPVVVKLLHPPSHWPLIKATVGLIRNLALCPANHAPLREQGAIPRLVQLLVRAHQDTQRRTSMGGTQQQFVEGVRMEEIVEGCTGALHILARDVHNRIVIRGLNTIPLFVQLLYSPIENIQRVAAGVLCELAQDKEAAEAIEAEGATAPLTELLHSRNEGVATYAAAVLFRMSEDKPQDYKKRLSVELTSSLFRTEPMAWNETADLGLDIGAQGEPLGYRQDDPSYRSFHSGGYGQDALGMDPMMEHEMGGHHPGADYPVDGLPDLGHAQDLMDGLPPGDSNQLAWFDTDL
notes: from the Long laboratory (Wu et al., 2008); also called pmyc-β-catenin-S191A; source: NIH 3T3, transfected, in lysate and in fixed cells
B2: myc-tagged β-catenin S605A (natural protein, UniProt P35222 1-781, looked up)
chain: B1 chain with A191S, S605A
notes: from the Long laboratory (Wu et al., 2008); also called pmyc-β-catenin-S605A; source: NIH 3T3, transfected, in lysate and in fixed cells

Biological target: T1, HA-tagged LEF-1 (UniProt Q9UJU2 1-399)
T1 construct: LEF-1 (lymphoid enhancer factor 1); written both HA-LEF-1 and LEF-1-HA; also called pHA-LEF-1; HA-LEF-1; source: HEK293, transfected, in lysate; NIH 3T3, transfected, in lysate and in fixed cells
T1 sequence (Q9UJU2 whole entry): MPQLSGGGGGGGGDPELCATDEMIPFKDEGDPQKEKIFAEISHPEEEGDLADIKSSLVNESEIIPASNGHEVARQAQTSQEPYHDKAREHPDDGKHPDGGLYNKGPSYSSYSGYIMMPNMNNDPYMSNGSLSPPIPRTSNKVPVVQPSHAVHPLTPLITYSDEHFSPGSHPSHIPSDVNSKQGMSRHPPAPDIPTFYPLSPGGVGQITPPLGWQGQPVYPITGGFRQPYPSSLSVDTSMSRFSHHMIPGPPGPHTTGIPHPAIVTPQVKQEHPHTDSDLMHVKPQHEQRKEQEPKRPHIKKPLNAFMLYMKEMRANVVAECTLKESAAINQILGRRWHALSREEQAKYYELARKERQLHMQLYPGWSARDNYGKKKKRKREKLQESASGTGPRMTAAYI
Assay: co-IP; NIH 3T3 lysates, pLEF-1-HA co-transfected with pβ-catenin-myc constructs; IP with HA mAb or isotype control IgG, blot with anti-myc; densitometry over three independent experiments
Conditions: partners not purified

| Binder | reduction in binding relative to β-catenin-WT (densitometry of the co-IP) [%] |
| --- | --- |
| B1 | ~20 |
| B2 | ~50 |
